Laboratory results: US20250026849A1 (ARCELLX, published 2025)

T1: P26 (human, UniProt P02771 381-609, limits assumed)
T1 construct: also called AFP p26
T1 sequence: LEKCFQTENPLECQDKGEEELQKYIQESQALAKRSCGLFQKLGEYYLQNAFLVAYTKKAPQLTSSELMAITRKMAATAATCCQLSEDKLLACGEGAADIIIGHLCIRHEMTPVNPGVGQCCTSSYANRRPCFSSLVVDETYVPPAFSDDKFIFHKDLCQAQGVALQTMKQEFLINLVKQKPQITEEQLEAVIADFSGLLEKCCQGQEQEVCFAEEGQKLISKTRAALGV


Biological target: T1, P26
Test: ELISA, format not described
Parameters: unit not given here

ELISA_avg | Binder
20 | D domain SEQ ID NO: 919 (designed binder) MGSWVEFYHRLDAIFDRLDALGGSEAELAAFEKEIAAFESELQAYKGKGNPEVEELRANAAGIRSWLQAYRHN
30.2 | D domain SEQ ID NO: 889 (designed binder) MGSWSEFFKRLEAIDRRLWALGGSEAELAAFEKEIAAFESELQAYKGKGNPEVEELREHAAHIRVWLQAYRHN
25.3 | D domain SEQ ID NO: 900 (designed binder) MGSWAEFSDRLNAIDQRLWALGGSEAELAAFEKEIAAFESELQAYKGKGNPEVEILREHAAEIRKFLQAYRHN
33.4 | D domain SEQ ID NO: 901 (designed binder) MGSWMEFNHRLQAIDGRLWALGGSEAELAAFEKEIAAFESELQAYKGKGNPEVEMLREHAAAIRAFLQAYRHN
30.4 | D domain SEQ ID NO: 893 (designed binder) MGSWLEFSQRLTAIDSRLWALGGSEAELAAFEKEIAAFESELQAYKGKGNPEVENLREHAAKIRNWLQAYRHN
33.1 | D domain SEQ ID NO: 904 (designed binder) MGSWYEFVSRLEAIDDRLYALGGSEAELAAFEKEIAAFESELQAYKGKGNPEVEMLRQHAAAIRHWLQAYRHN
30.8 | D domain SEQ ID NO: 898 (designed binder) MGSWLEFHSRLDAIDTRLWALGGSEAELAAFEKEIAAFESELQAYKGKGNPEVEKLREHAAAIRHYLQAYRHN
26 | D domain SEQ ID NO: 905 (designed binder) MGSWYEFSHRLEAIEDRLFALGGSEAELAAFEKEIAAFESELQAYKGKGNPEVEPLREHAAYIRHWLQAYRHN
30.8 | D domain SEQ ID NO: 913 (designed binder) MGSWSEFYYRLAAIESRLFALGGSEAELAAFEKEIAAFESELQAYKGKGNPEVERLREHAAHIRRWLQAYRHN
29 | D domain SEQ ID NO: 896 (designed binder) MGSWVEFVSRLYAIDFRLWALGGSEAELAAFEKEIAAFESELQAYKGKGNPEVEALREHAAQIRDWLQAYRHN
16.7 | D domain SEQ ID NO: 894 (designed binder) MGSWTEFVNRLYAIDSRLWALGGSEAELAAFEKEIAAFESELQAYKGKGNPEVEGLRTHAAKIRHWLQAYRHN
11.7 | D domain SEQ ID NO: 909 (designed binder) MGSWVEFVTRLEAIEDRLFALGGSEAELAAFEKEIAAFESELQAYKGKGNPEVEHLRAHAAHIRHWLQAYRHN
28.7 | D domain SEQ ID NO: 918 (designed binder) MGSWVEFYERLNAIEYRLEALGGSEAELAAFEKEIAAFESELQAYKGKGNPEVESLREHAAYIRQWLQAYRHN
30.1 | D domain SEQ ID NO: 910 (designed binder) MGSWYEFVIRLDAIEDRLFALGGSEAELAAFEKEIAAFESELQAYKGKGNPEVEHLRVHAAHIRVWLQAYRHN
32.1 | D domain SEQ ID NO: 895 (designed binder) MGSWMEFVDRLSAIDRRLWALGGSEAELAAFEKEIAAFESELQAYKGKGNPEVEVLREHAANIRQWLQAYRHN
20.3 | D domain SEQ ID NO: 906 (designed binder) MGSWFEFFERLAAIEDRLWALGGSEAELAAFEKEIAAFESELQAYKGKGNPEVESLRVHAAAIRAFLQAYRHN

ELISA_avg | Binder
30.8 | D domain SEQ ID NO: 902 (designed binder) MGSWYEFYKRLEAIDNRLYALGGSEAELAAFEKEIAAFESELQAYKGKGNPEVEYLREHAAAIRHWLQAYRHN
24.4 | D domain SEQ ID NO: 892 (designed binder) MGSWTEFHQRLDAIDERLWALGGSEAELAAFEKEIAAFESELQAYKGKGNPEVEFLREHAAKIRMWLQAYRHN
23.5 | D domain SEQ ID NO: 897 (designed binder) MGSWSEFHTRLDAIDTRLWALGGSEAELAAFEKEIAAFESELQAYKGKGNPEVEDLRRHAAAIRFWLQAYRHN
23.8 | D domain SEQ ID NO: 911 (designed binder) MGSWVEFVERLDAIEFRLFALGGSEAELAAFEKEIAAFESELQAYKGKGNPEVEKLRNHAAHIRSWLQAYRHN
26.9 | D domain SEQ ID NO: 916 (designed binder) MGSWHEFWVRLEAIESRLFALGGSEAELAAFEKEIAAFESELQAYKGKGNPEVESLRVQAAHIRSWLQAYRHN
31.9 | D domain SEQ ID NO: 915 (designed binder) MGSWYEFYDRLDAIEDRLFALGGSEAELAAFEKEIAAFESELQAYKGKGNPEVESLRDQAAYIRTWLQAYRHN
28.5 | D domain SEQ ID NO: 917 (designed binder) MGSWVEFYHRLEAIEQRLMALGGSEAELAAFEKEIAAFESELQAYKGKGNPEVESLREQAAAIRSWLQAYRHN
27.3 | D domain SEQ ID NO: 890 (designed binder) MGSWYEFQQRLEAIDTRLWALGGSEAELAAFEKEIAAFESELQAYKGKGNPEVEELREHAAHIRHWLQAYRHN
27.4 | D domain SEQ ID NO: 914 (designed binder) MGSWYEFYLRLSAIEDRLFALGGSEAELAAFEKEIAAFESELQAYKGKGNPEVESLRVQAAHIRTWLQAYRHN
29.7 | D domain SEQ ID NO: 899 (designed binder) MGSWTEFYQRLDAIDTRLWALGGSEAELAAFEKEIAAFESELQAYKGKGNPEVEGLRQQAAQIRAWLQAYRHN
16.9 | D domain SEQ ID NO: 912 (designed binder) MGSWSEFVHRLDAIEVRLFALGGSEAELAAFEKEIAAFESELQAYKGKGNPEVEELRYHAAKIRSWLQAYRHN
18.3 | D domain SEQ ID NO: 907 (designed binder) MGSWIEFKYRLDAIEWRLEALGGSEAELAAFEKEIAAFESELQAYKGKGNPEVESLRIHAAAIRTWLQAYRHN
17.1 | D domain SEQ ID NO: 891 (designed binder) MGSWTEFEKRLHAIDYRLWALGGSEAELAAFEKEIAAFESELQAYKGKGNPEVEDLREHAAAIRHWLQAYRHN
29.6 | D domain SEQ ID NO: 903 (designed binder) MGSWYEFYYRLEAIDNRLIALGGSEAELAAFEKEIAAFESELQAYKGKGNPEVEVLREHAAKIREWLQAYRHN
19.4 | D domain SEQ ID NO: 908 (designed binder) MGSWYEFMYRLDAIEYRLFALGGSEAELAAFEKEIAAFESELQAYKGKGNPEVESLRIHAAMIREWLQAYRHN
25.4 | D domain SEQ ID NO: 920 (designed binder) MGSWSEFTDRLFAIEDRLLALGGSEAELAAFEKEIAAFESELQAYKGKGNPEVEDLRMHAASIRLWLQAYRHN
